The values that follow are results of earlier work, collected in paper PMC4286324.

The term Kd denotes a measure of binding affinity in units of concentration.

The target in this series is Nef (Human immunodeficiency virus 1) (UniProt P04324).

Take Hck SH3 (from UniProt P08631): the Kd was 250 nM.
